Assay results as given in IntAct's records for PubMed 7759517.

B1: Dual specificity mitogen-activated protein kinase kinase 5 (Homo sapiens), Q13163 (parent)
chain: MLWLALGPFPAMENQVLVIRIKIPNSGAVDWTVHSGPQLLFRDVLDVIGQVLPEATTTAFEYEDEDGDRITVRSDEEMKAMLSYYYSTVMEQQVNGQLIEPLQIFPRACKPPGERNIHGLKVNTRAGPSQHSSPAVSDSLPSNSLKKSSAELKKILANGQMNEQDIRYRDTLGHGNGGTVYKAYHVPSGKILAVKVILLDITLELQKQIMSELEILYKCDSSYIIGFYGAFFVENRISICTEFMDGGSLDVYRKMPEHVLGRIAVAVVKGLTYLWSLKILHRDVKPSNMLVNTRGQVKLCDFGVSTQLVNSIAKTYVGTNAYMAPERISGEQYGIHSDVWSLGISFMELALGRFPYPQIQKNQGSLMPLQLLQCIVDEDSPVLPVGEFSEPFVHFITQCMRKQPKERPAPEELMGHPFIVQFNDGNAAVVSMWVCRALEERRSQQGPP

Variants of: B1
Details: with mk07_human MAPK7, Q13164
Sequence of mk07_human MAPK7, Q13164 (Q13164 whole entry, looked up): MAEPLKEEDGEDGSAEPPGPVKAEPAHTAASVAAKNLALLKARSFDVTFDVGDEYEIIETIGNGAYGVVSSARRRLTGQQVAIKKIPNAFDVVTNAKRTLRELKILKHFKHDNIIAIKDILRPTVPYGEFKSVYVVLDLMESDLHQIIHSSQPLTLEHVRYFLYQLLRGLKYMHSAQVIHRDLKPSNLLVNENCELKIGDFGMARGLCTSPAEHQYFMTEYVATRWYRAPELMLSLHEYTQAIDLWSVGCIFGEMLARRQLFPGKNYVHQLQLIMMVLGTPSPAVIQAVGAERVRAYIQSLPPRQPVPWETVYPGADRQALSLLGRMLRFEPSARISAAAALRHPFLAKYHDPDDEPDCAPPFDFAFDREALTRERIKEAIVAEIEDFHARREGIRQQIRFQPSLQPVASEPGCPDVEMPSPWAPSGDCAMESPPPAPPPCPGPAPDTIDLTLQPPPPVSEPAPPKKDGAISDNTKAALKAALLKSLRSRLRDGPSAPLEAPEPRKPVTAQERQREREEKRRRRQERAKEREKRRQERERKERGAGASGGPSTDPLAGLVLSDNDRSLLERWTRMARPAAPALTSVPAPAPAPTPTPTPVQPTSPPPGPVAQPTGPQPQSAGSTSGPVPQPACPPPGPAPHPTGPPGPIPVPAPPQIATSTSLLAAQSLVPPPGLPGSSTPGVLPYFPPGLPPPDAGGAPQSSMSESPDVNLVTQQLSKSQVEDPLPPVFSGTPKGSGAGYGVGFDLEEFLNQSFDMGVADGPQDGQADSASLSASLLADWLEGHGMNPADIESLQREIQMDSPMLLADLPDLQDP

effect of a mutation on the interaction	Variant
increasing interaction	MLWLALGPFPAMENQVLVIRIKIPNSGAVDWTVHSGPQLLFRDVLDVIGQVLPEATTTAFEYEDEDGDRITVRSDEEMKAMLSYYYSTVMEQQVNGQLIEPLQIFPRACKPPGERNIHGLKVNTRAGPSQHSSPAVSDSLPSNSLKKSSAELKKILANGQMNEQDIRYRDTLGHGNGGTVYKAYHVPSGKILAVKVILLDITLELQKQIMSELEILYKCDSSYIIGFYGAFFVENRISICTEFMDGGSLDVYRKMPEHVLGRIAVAVVKGLTYLWSLKILHRDVKPSNMLVNTRGQVKLCDFGVSTQLVNAIAKAYVGTNAYMAPERISGEQYGIHSDVWSLGISFMELALGRFPYPQIQKNQGSLMPLQLLQCIVDEDSPVLPVGEFSEPFVHFITQCMRKQPKERPAPEELMGHPFIVQFNDGNAAVVSMWVCRALEERRSQQGPP [S311A;T315A]

Variants of: B1
Details: with mk07_human MAPK7, Q13164
Remark: another data set of the same source

effect of a mutation on the interaction	Variant
increasing interaction	MLWLALGPFPAMENQVLVIRIKIPNSGAVDWTVHSGPQLLFRDVLDVIGQVLPEATTTAFEYEDEDGDRITVRSDEEMKAMLSYYYSTVMEQQVNGQLIEPLQIFPRACKPPGERNIHGLKVNTRAGPSQHSSPAVSDSLPSNSLKKSSAELKKILANGQMNEQDIRYRDTLGHGNGGTVYKAYHVPSGKILAVMVILLDITLELQKQIMSELEILYKCDSSYIIGFYGAFFVENRISICTEFMDGGSLDVYRKMPEHVLGRIAVAVVKGLTYLWSLKILHRDVKPSNMLVNTRGQVKLCDFGVSTQLVNSIAKTYVGTNAYMAPERISGEQYGIHSDVWSLGISFMELALGRFPYPQIQKNQGSLMPLQLLQCIVDEDSPVLPVGEFSEPFVHFITQCMRKQPKERPAPEELMGHPFIVQFNDGNAAVVSMWVCRALEERRSQQGPP [K195M]
